The values below come from the supplement of paper PMC9112550, “Optimization of the antimicrobial peptide Bac7 by deep mutational scanning” (BMC Biology, 2022).

In the data set the test system is Escherichia coli TOP10. As to the kind of experiment: shrunken log2 fold change of peptide-encoding DNA abundance (4.5 h post-induction vs induction); higher = less antimicrobial activity (less host growth inhibition). As to conditions: time post-induction: 4.5 h; library: site-saturation at positions 5, 18, 19, 20.
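Also: peptides expressed intracellularly from a pBAD plasmid library in pooled LB shake-flask culture, induced with 0.3% L-arabinose, DNA abundance read by NGS, three biological replicates, DESeq2 with apeglm shrinkage.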

As to RRIRNRPPRLPRPRPRPDQVPRP, the “shrunken log2 fold change” value is -0.148. Turning to RRIRDRPPRLPRPRPRPCNAPRP, the “shrunken log2 fold change” value turned out to be 0.0759. For the sequence RRIRNRPPRLPRPRPRPHEKPRP, the “shrunken log2 fold change” value is -0.0437. RRIRQRPPRLPRPRPRPMKKPRP: the “shrunken log2 fold change” value was determined as 0.0152. With RRIRWRPPRLPRPRPRPATEPRP the figure was 0.479; with RRIRCRPPRLPRPRPRPYCDPRP, -0.623; with RRIRGRPPRLPRPRPRPAIEPRP, 0.942. With RRIRMRPPRLPRPRPRPGQTPRP the figure was -0.00931. With RRIRCRPPRLPRPRPRPIELPRP the figure was -0.0768. RRIRARPPRLPRPRPRPCGSPRP: the “shrunken log2 fold change” value is -0.0125. With RRIRIRPPRLPRPRPRPRQSPRP the figure was 0.065. On to RRIRLRPPRLPRPRPRPKECPRP, for which the “shrunken log2 fold change” value was -0.0179. On to RRIRTRPPRLPRPRPRPLFYPRP, for which the “shrunken log2 fold change” value was -0.467. Under RRIRKRPPRLPRPRPRPEHEPRP stands 1.09. With RRIRWRPPRLPRPRPRPRWMPRP the figure was 0.1; with RRIRCRPPRLPRPRPRPKTNPRP, 0.00906. Under RRIRDRPPRLPRPRPRPCMDPRP stands 0.0285. As for RRIRCRPPRLPRPRPRPPIKPRP, the “shrunken log2 fold change” value was -0.0789.

With RRIRMRPPRLPRPRPRPWYWPRP, the “shrunken log2 fold change” value was -0.724. Under RRIRLRPPRLPRPRPRPSYEPRP stands -0.496; under RRIRVRPPRLPRPRPRPSSTPRP, -0.398; under RRIRMRPPRLPRPRPRPTPKPRP, 0.107.

Regarding RRIRTRPPRLPRPRPRPKDEPRP, the “shrunken log2 fold change” value is -0.0319.

Turning to RRIRVRPPRLPRPRPRPIMDPRP, the “shrunken log2 fold change” value is -0.151. Under RRIRYRPPRLPRPRPRPRWMPRP stands -0.208. Take RRIRIRPPRLPRPRPRPDVTPRP: the “shrunken log2 fold change” value is -0.0322. Take RRIRIRPPRLPRPRPRPQLLPRP: the “shrunken log2 fold change” value is -0.0818. With RRIRNRPPRLPRPRPRPLRAPRP the figure was 0.672. In the case of RRIRDRPPRLPRPRPRPHYNPRP, the “shrunken log2 fold change” value was -0.635. Consider RRIRRRPPRLPRPRPRPVRYPRP, for which the “shrunken log2 fold change” value is 0.181. With RRIRQRPPRLPRPRPRPKGPPRP the figure was -0.201; with RRIRWRPPRLPRPRPRPDPNPRP, 0.196; with RRIRHRPPRLPRPRPRPLNHPRP, -0.785.

For RRIRMRPPRLPRPRPRPSQYPRP, the “shrunken log2 fold change” value was -0.191. For the sequence RRIRARPPRLPRPRPRPVKPPRP, the “shrunken log2 fold change” value was found to be 0.236.

Take RRIRLRPPRLPRPRPRPPSKPRP: the “shrunken log2 fold change” value is 0.148. Under RRIRDRPPRLPRPRPRPMGFPRP stands 0.258; under RRIRCRPPRLPRPRPRPLIWPRP, -0.177; under RRIRDRPPRLPRPRPRPYFHPRP, -0.678. Take RRIRFRPPRLPRPRPRPSGEPRP: the “shrunken log2 fold change” value is -0.135.

On to RRIRWRPPRLPRPRPRPHMLPRP, for which the “shrunken log2 fold change” value was -0.954.

On to RRIRDRPPRLPRPRPRPPYVPRP, for which the “shrunken log2 fold change” value is -0.0635. For the sequence RRIRGRPPRLPRPRPRPKCKPRP, the “shrunken log2 fold change” value was 0.51. Under RRIRRRPPRLPRPRPRPWASPRP stands 0.289; under RRIRPRPPRLPRPRPRPDCAPRP, 0.354; under RRIRGRPPRLPRPRPRPQMEPRP, 0.473. With RRIRKRPPRLPRPRPRPNGMPRP the figure was 0.0655; with RRIRDRPPRLPRPRPRPGSRPRP, 0.0273; with RRIRSRPPRLPRPRPRPGHVPRP, 0.1.

Consider RRIRQRPPRLPRPRPRPHIWPRP, for which the “shrunken log2 fold change” value is -0.333. Regarding RRIRERPPRLPRPRPRPFSKPRP, the “shrunken log2 fold change” value was -0.0819.

Turning to RRIRNRPPRLPRPRPRPPIRPRP, the “shrunken log2 fold change” value came to 0.0511. Under RRIRYRPPRLPRPRPRPNLFPRP stands -0.676; under RRIRNRPPRLPRPRPRPTMKPRP, -0.368; under RRIRKRPPRLPRPRPRPQYRPRP, -0.185. For the sequence RRIRNRPPRLPRPRPRPVPYPRP, the “shrunken log2 fold change” value is 0.0481. With RRIRIRPPRLPRPRPRPEVRPRP, the “shrunken log2 fold change” value is -0.0584. Turning to RRIRTRPPRLPRPRPRPRHAPRP, the “shrunken log2 fold change” value was found to be 0.329. Under RRIRMRPPRLPRPRPRPMLDPRP stands 0.722; under RRIRQRPPRLPRPRPRPYHCPRP, -0.0107.

Take RRIRERPPRLPRPRPRPSGKPRP: the “shrunken log2 fold change” value is -0.119. With RRIRNRPPRLPRPRPRPCKEPRP the figure was -0.451; with RRIRRRPPRLPRPRPRPGSEPRP, 0.00207. With RRIRYRPPRLPRPRPRPATSPRP, the “shrunken log2 fold change” value is -0.452. With RRIRKRPPRLPRPRPRPAGSPRP the figure was 0.0961; with RRIRNRPPRLPRPRPRPQTVPRP, -0.0578. Under RRIRHRPPRLPRPRPRPFVIPRP stands -0.331.

As to RRIRDRPPRLPRPRPRPEMDPRP, the “shrunken log2 fold change” value is 0.0766. Under RRIRIRPPRLPRPRPRPTHIPRP stands -0.495; under RRIRTRPPRLPRPRPRPMMFPRP, -0.0404; under RRIRSRPPRLPRPRPRPCSLPRP, -0.484. For the sequence RRIRMRPPRLPRPRPRPHAAPRP, the “shrunken log2 fold change” value is 1.63. For RRIRIRPPRLPRPRPRPVCKPRP, the “shrunken log2 fold change” value is -0.21. Under RRIRIRPPRLPRPRPRPMVMPRP stands -0.138. In the case of RRIRGRPPRLPRPRPRPYQMPRP, the “shrunken log2 fold change” value is -0.0136. As to RRIRRRPPRLPRPRPRPICSPRP, the “shrunken log2 fold change” value was found to be 0.0991.

On to RRIRMRPPRLPRPRPRPFHRPRP, for which the “shrunken log2 fold change” value is -0.114. Turning to RRIRYRPPRLPRPRPRPDEGPRP, the “shrunken log2 fold change” value was -0.226. In the case of RRIRGRPPRLPRPRPRPLSKPRP, the “shrunken log2 fold change” value amounted to 0.425.

Take RRIRYRPPRLPRPRPRPTARPRP: the “shrunken log2 fold change” value is -0.0799. Under RRIRIRPPRLPRPRPRPKTDPRP stands -0.292; under RRIRTRPPRLPRPRPRPPLSPRP, -0.0606. As for RRIRVRPPRLPRPRPRPMSKPRP, the “shrunken log2 fold change” value was -0.0756. Under RRIRGRPPRLPRPRPRPMCRPRP stands 0.393; under RRIRGRPPRLPRPRPRPEQDPRP, 1.47; under RRIRVRPPRLPRPRPRPFAGPRP, 0.03. With RRIRIRPPRLPRPRPRPMVDPRP the figure was -0.0165. With RRIRLRPPRLPRPRPRPPSGPRP the figure was 0.0718; with RRIRTRPPRLPRPRPRPGQCPRP, 0.013; with RRIRPRPPRLPRPRPRPGCNPRP, -0.124. In the case of RRIRPRPPRLPRPRPRPCQRPRP, the “shrunken log2 fold change” value was -0.144. With RRIRSRPPRLPRPRPRPKKTPRP the figure was -0.356; with RRIRSRPPRLPRPRPRPGWIPRP, 0.0994. RRIRDRPPRLPRPRPRPVRFPRP: the “shrunken log2 fold change” value is 0.189.

For the sequence RRIRIRPPRLPRPRPRPWSVPRP, the “shrunken log2 fold change” value was -0.541. With RRIRRRPPRLPRPRPRPGGIPRP the figure was 0.0225; with RRIRCRPPRLPRPRPRPGSMPRP, -0.24; with RRIRVRPPRLPRPRPRPLPSPRP, 0.244. RRIRARPPRLPRPRPRPGKAPRP: the “shrunken log2 fold change” value turned out to be 0.266. With RRIRGRPPRLPRPRPRPYDTPRP the figure was -0.0956; with RRIRHRPPRLPRPRPRPWNCPRP, -0.366; with RRIRERPPRLPRPRPRPQKDPRP, -0.298.

Turning to RRIRMRPPRLPRPRPRPFPIPRP, the “shrunken log2 fold change” value amounted to 0.0281. Under RRIRMRPPRLPRPRPRPMMEPRP stands 0.00973; under RRIRMRPPRLPRPRPRPSPWPRP, 0.61; under RRIRLRPPRLPRPRPRPEGIPRP, -0.229. RRIRKRPPRLPRPRPRPQFQPRP: the “shrunken log2 fold change” value was -0.0733. With RRIRVRPPRLPRPRPRPPEIPRP the figure was -0.0437; with RRIRARPPRLPRPRPRPGRNPRP, 0.419. With RRIRCRPPRLPRPRPRPTQWPRP, the “shrunken log2 fold change” value amounted to 0.202. As to RRIRTRPPRLPRPRPRPACMPRP, the “shrunken log2 fold change” value worked out at 0.0444. With RRIRCRPPRLPRPRPRPPPIPRP the figure was 0.998. For RRIRLRPPRLPRPRPRPGINPRP, the “shrunken log2 fold change” value is -0.354. For the sequence RRIRNRPPRLPRPRPRPYEEPRP, the “shrunken log2 fold change” value is -0.277. As for RRIRDRPPRLPRPRPRPLSHPRP, the “shrunken log2 fold change” value was -0.0109. Take RRIRERPPRLPRPRPRPAVIPRP: the “shrunken log2 fold change” value is -0.12. For the sequence RRIRARPPRLPRPRPRPFWMPRP, the “shrunken log2 fold change” value was 1.14. Turning to RRIRERPPRLPRPRPRPQPHPRP, the “shrunken log2 fold change” value is -0.261. With RRIRQRPPRLPRPRPRPGKTPRP, the “shrunken log2 fold change” value is -0.00992. Turning to RRIRPRPPRLPRPRPRPGVGPRP, the “shrunken log2 fold change” value was determined as 0.53. For RRIRSRPPRLPRPRPRPVMPPRP, the “shrunken log2 fold change” value was -0.103.

With RRIRPRPPRLPRPRPRPRTLPRP, the “shrunken log2 fold change” value amounted to 0.0704. Under RRIRPRPPRLPRPRPRPHNPPRP stands -0.0801; under RRIRTRPPRLPRPRPRPQWLPRP, -0.455.

As for RRIRGRPPRLPRPRPRPDFSPRP, the “shrunken log2 fold change” value was 0.313.
